# Like-named read-outs stand apart in the source and are kept apart here.
# B1: cynomolgus monkey N-terminal 6-His-tagged and C-terminal Avi-tagged IL-33 (S112-T270) (ligand)
# chain: MHHHHHHGENLYFQGSITGISPITESLASLSTYNDQSITFALEDESYEIYVEDLKKDKKKDKVLLSYYESQHPSSESGDGVDGKMLMVTLSPTKDFWLQANNKEHSVELHKCEKPLPDQAFFVLHNRSFNCVSFECKTDPGVFIGVKDNHLALIKVDYSENLGSENILFKLSETGNSGGGLNDIFEAQKIEWHE
# B2: H4H9660P (antibody, from another filing, IgG4, V domains shown)
# VH: EVQLVESGGGLVQPGGSLRLSCAASGITLSSYGMSWVRQAPGKGLEWVASIFGSGGGPYYADSVKGRFTMSRDNSKNTLYLQMNSLRAEDTAVYYCAKDRYSGSYYGGFDYWGRGTLVTVSS
# VL: DIQMTQSPSSVSASVGDRVTITCRASQGITSWLAWYQQKPGKAPTLLIYAASSLQTGVPSRFSGSGSGTDFTLTISSLQPEHFATYYCQQANSFPPTFGGGTKVEIK
# B3: H4H9667P (antibody, from another filing, IgG4, V domains shown)
# VH: EVQLVESGGGLVQPGGSLRLSCAASGFTFSTYSMHWVRQAPGKGLEYVSTINNNGDTTYYADSVKGRFTISRDNSKNTLYLQLGSLRPEDMAVYYCARQTYTSSWYGGFDSWGQGTLVTVSS
# VL: DIQMTQSPSSVSASVGDRVTITCRASQGITSWLAWYQQKPGKAPKLLIYAASNLQSGVPSRFSGSGSGTDFTLTITSLQPEDFATYYCQQANSLPFTFGPGTKVDIK
# B4: H4H9672P (antibody, from another filing, IgG4, V domains shown)
# VH: EVQLVESGGGLVQPGGSLRLSCAASGFTLRSYVMYWVRQGPGKGLEGVSGISGSSGGTYYTDSVKGRFTISRDNSKNTLFLQMNSLRAEDTAVYFCARSVYSTTWYGGFQHWGQGTLVTVSS
# VL: DIQMTQSPSSVSVSVGDRVTITCRASQVISSWLAWYQLKPGKAPKLLIYAASSLQSGVPSRFSGSGSGTDFTLTISGLQPEDFAVYYCQQTNSFPLTFGGGTKVEIK
# B5: H4H9676P (antibody, from another filing, IgG4, V domains shown)
# VH: EVQLVESGGGLVQPGGSLRLSCSASGFTFSSYAMNWVRQAPGKGLEWVTAISGSGGGTYYADSVKGRFTISRDNSKNSLFLQLNSLRAEDTAVYYCAKQTYTSSWYGGFDIWGQGTMVTVSS
# VL: DIQMTQSPSSVSASVGDRVTITCRASQGFSSWLAWYQQIPGKAPKLLIYAASRLQSGVPSRFRGSGSGTDFTLTISSLQPEDFATYYCQQANSFPLTFGGGTKVEIK
# Tests used:
# [1] = target: human ST2L on HEK-BLUE IL-33/IL-1beta cells (human) (UniProt Q01638)
# [2] = target: human ST2L on HEK-BLUE IL-33/IL-1beta cells (human) (UniProt Q01638); remark: listed apart in the source
# [3] = target: T1, human IL-33 (R&D Systems, #3625-IL-010/CF) (human) (UniProt O95760)
# T1 sequence (looked up): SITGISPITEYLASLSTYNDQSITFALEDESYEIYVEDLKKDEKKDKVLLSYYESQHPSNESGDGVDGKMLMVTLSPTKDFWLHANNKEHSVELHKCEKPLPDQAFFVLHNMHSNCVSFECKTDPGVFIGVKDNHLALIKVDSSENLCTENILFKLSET
# [4] = target: T1, human IL-33 (R&D Systems, #3625-IL-010/CF) (human); remark: listed apart in the source
# [5] = target: T1, human IL-33 (R&D Systems, #3625-IL-010/CF) (human); remark: listed apart in the source
# [6] = target: T1, human IL-33 (R&D Systems, #3625-IL-010/CF) (human); remark: listed apart in the source
# [7] = target: T1, human IL-33 (R&D Systems, #3625-IL-010/CF) (human); remark: listed apart in the source
# [8] = target: T1, human IL-33 (R&D Systems, #3625-IL-010/CF) (human); remark: listed apart in the source
# [9] = target: T1, human IL-33 (R&D Systems, #3625-IL-010/CF) (human); assay: SPR Biacore T200, 25 C
# [10] = target: T1, human IL-33 (R&D Systems, #3625-IL-010/CF) (human); assay: SPR Biacore T200, 37 C
# [11] = target: T2, biotinylated human IL-33 (human) (UniProt O95760); assay: competitive ELISA, biotin-huIL-33 to coated hST2-Fc
# T2 sequence (biotin-labeled with EZ-LINK NHS-PEG4-Biotin, looked up): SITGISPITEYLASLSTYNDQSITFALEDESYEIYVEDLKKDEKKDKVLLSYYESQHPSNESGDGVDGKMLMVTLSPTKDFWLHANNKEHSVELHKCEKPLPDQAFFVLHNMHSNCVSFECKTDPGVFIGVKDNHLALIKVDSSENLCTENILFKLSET
# [12] = target: T1, human IL-33 (R&D Systems, #3625-IL-010/CF) (human); remark: listed apart in the source
# [13] = target: T1, human IL-33 (R&D Systems, #3625-IL-010/CF) (human); remark: listed apart in the source
# human ST2L on HEK-BLUE IL-33/IL-1beta cells (human), sequence (Q01638 19-556 limits assumed): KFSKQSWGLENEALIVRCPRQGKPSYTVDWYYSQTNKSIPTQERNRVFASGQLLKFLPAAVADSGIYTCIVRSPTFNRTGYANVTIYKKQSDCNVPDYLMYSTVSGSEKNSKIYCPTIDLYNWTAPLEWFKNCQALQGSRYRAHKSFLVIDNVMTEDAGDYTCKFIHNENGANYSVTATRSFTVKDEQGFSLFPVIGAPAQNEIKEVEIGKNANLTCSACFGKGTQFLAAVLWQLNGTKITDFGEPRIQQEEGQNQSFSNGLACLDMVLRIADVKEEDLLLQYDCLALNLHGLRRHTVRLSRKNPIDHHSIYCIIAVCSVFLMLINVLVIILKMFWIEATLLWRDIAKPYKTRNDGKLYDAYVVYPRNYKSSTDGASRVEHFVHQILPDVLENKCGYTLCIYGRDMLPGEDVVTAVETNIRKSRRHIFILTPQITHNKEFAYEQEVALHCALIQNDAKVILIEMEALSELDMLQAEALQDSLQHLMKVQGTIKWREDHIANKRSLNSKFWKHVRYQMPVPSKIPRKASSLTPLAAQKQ
Binder,"EC50 (SEAP reporter OD 620, HEK-BLUE IL-33/IL-1beta cells) [1] [nM]","EC50 (SEAP reporter OD 620, HEK-BLUE IL-33/IL-1beta cells) [2] [nM]","IC50; SEAP reporter (OD 620), HEK-BLUE IL-33/IL-1beta cells, 10 pM hIL-33 [3] [M]","IC50; IFN-gamma ELISA, primary human NK cells, 260 pM hIL-33 + IL-12 [4] [M]","IC50, IL-33-induced phospho-p38 in primary human basophils, 500 pM hIL-33 [5] [M]",IC50 (read off the curve) [6] [nM],"Ph-p38 MFI at 0.4 nM Ab (500 pM human IL-33, primary basophils) [7] [MFI]","Ph-p38 MFI at 2 nM Ab (500 pM human IL-33, primary basophils) [8] [MFI]",Kd [9] [nM],koff [9] [s⁻¹],kon [9] [M⁻¹ s⁻¹],t1/2 [9] [min],Kd [10] [nM],koff [10] [s⁻¹],kon [10] [M⁻¹ s⁻¹],t1/2 [10] [min],IC50 [11] [nM],Maximum Blocking [11] [%],IC50 (read off the curve) [12] [nM],IC50 (read off the curve) [13] [nM]
B1,0.0087,0.021,–,–,–,–,–,–,–,–,–,–,–,–,–,–,–,–,–,–
B2,–,–,3.8e-11,2.4e-10,4.8e-13,0.0005,105,29,0.67,0.00039,581000,30,0.302,0.000413,1.37e+06,28,0.092,78,–,–
B3,–,–,1e-09,–,2e-12,–,111,68,0.525,0.000328,626000,35,0.411,0.000497,1.21e+06,23,0.41,77,0.002,–
B4,–,–,9.8e-10,–,5.7e-13,–,113,61,0.839,0.000806,960000,14,0.531,0.00127,2.39e+06,9,0.22,77,–,0.0006
B5,–,–,8.2e-10,1.2e-09,9.1e-13,–,132,61,0.56,0.001,1.79e+06,12,0.457,0.00158,3.47e+06,7,0.97,73,–,0.0009

# — patent US20190092852A1
